Measurements as given in article PMC5019495.

Assays:
[1] = biological target: Siz1^(167–449)-ΔN18Smt3^K19R/D68RΔGG97/98-L-E-His6 (yeast) (UniProt Q04195)
[2] = biological target: Siz1^(167–508)-ΔN18Smt3^K19R/D68RΔGG97/98-L-E-His6 (yeast) (UniProt Q04195)
[3] = biological target: Siz1^(167–449)-ΔN18Smt3^K19RΔGG97/98-L-E-His6 (yeast) (UniProt Q04195)
Siz1^(167–449) (yeast) = Siz1^(167–449) (yeast) (UniProt Q04195)
Siz1^(167–508) (yeast) = Siz1^(167–508) (yeast) (UniProt Q04195)
Sequence of Siz1^(167–508) (yeast) (Q04195 167-508): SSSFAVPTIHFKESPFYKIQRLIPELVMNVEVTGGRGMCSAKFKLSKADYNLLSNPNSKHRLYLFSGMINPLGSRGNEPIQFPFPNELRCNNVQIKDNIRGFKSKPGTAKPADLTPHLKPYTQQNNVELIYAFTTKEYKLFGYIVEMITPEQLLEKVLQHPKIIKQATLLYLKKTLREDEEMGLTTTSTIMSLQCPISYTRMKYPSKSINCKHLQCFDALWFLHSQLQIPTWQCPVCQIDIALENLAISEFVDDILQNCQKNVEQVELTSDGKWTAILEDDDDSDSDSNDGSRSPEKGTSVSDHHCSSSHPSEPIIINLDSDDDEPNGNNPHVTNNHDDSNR

Sequence of Siz1^(167–449) (yeast) (Q04195 167-449): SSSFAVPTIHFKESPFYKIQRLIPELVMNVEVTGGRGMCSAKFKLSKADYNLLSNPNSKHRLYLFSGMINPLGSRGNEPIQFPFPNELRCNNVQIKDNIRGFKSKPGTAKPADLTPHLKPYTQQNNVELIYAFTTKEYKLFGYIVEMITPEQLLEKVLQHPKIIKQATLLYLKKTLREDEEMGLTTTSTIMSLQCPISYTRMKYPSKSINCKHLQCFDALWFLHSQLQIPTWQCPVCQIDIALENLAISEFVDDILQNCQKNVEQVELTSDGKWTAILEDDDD
Sequence of Siz1^(167–449)-ΔN18Smt3^K19R/D68RΔGG97/98-L-E-His6 (yeast) (Q04195 whole entry, looked up, stated change not applied, tested part not stated): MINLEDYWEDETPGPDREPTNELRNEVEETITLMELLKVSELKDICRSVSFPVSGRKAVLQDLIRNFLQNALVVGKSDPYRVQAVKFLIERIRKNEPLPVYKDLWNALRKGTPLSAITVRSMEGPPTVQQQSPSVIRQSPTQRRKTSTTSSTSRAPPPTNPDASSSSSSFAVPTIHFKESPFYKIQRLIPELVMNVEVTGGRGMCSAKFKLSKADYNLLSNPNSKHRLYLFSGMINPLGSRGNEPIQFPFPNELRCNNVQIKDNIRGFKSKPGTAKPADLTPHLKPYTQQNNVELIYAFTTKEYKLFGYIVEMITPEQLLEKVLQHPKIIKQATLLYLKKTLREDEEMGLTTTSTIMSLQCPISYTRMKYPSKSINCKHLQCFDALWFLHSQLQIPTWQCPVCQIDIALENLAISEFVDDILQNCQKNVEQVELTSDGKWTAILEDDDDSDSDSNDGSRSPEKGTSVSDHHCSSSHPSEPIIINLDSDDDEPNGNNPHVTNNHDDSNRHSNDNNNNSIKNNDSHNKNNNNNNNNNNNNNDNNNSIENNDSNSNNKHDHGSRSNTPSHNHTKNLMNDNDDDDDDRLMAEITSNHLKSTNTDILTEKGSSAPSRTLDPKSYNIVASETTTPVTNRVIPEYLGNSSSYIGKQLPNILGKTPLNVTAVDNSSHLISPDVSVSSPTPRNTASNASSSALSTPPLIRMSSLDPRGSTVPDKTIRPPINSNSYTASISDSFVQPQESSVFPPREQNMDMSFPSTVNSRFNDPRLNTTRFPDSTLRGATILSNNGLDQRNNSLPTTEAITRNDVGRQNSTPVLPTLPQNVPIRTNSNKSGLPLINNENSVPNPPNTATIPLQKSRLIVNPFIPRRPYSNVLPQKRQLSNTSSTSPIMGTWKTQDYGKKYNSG
Sequence of Siz1^(167–508)-ΔN18Smt3^K19R/D68RΔGG97/98-L-E-His6 (yeast) (Q04195 whole entry, looked up, stated change not applied, tested part not stated): as above
Sequence of Siz1^(167–449)-ΔN18Smt3^K19RΔGG97/98-L-E-His6 (yeast) (Q04195 whole entry, looked up, stated change not applied, tested part not stated): as above

Substance: Ubc9^K153R-Smt3^K11C/D68R-Alexa488 thioester (from UniProt P50623 1-157; Q12306 1-101) (complex)
- Km of the E2-SUMO thioester, K127 product [1]: 4.4 µM
- Km of the E2-SUMO thioester, K164 product [1]: 1.02 µM
- Km of the E2-SUMO thioester, K127 product [2]: 2.07 µM
- Km of the E2-SUMO thioester, K127 product [3]: 0.48 µM
- Km of the E2-SUMO thioester, K127 product, no additional SUMO (Siz1^(167–449) (yeast)): 1.23 µM
- Km of the E2-SUMO thioester, K127 product, with 1.5-fold excess Δ18Smt3ΔGGHIS (Siz1^(167–449) (yeast)): 1.84 µM
- Km of the E2-SUMO thioester, K164 product, no additional SUMO (Siz1^(167–449) (yeast)): 0.91 µM
- Km of the E2-SUMO thioester, K164 product, with 1.5-fold excess Δ18Smt3ΔGGHIS (Siz1^(167–449) (yeast)): 1.44 µM
- Km of the E2-SUMO thioester, K127 product, no additional SUMO (Siz1^(167–508) (yeast)): 2.34 µM
- Km of the E2-SUMO thioester, K127 product, with 1.5-fold excess Δ18Smt3ΔGGHIS (Siz1^(167–508) (yeast)): 1.15 µM
- Km of the E2-SUMO thioester, K164 product, no additional SUMO (Siz1^(167–508) (yeast)): 0.91 µM
